Laboratory results taken from patent US20220064329A1 (Novo Nordisk, published 2022).
Numbering of substitutions follows the chain as printed. Names may count otherwise. Read-outs that look alike come from different tables or passages of the source. Each block holds one binder with its values, some of them ahead of it.

Tests used:
[1] = target: T1, recombinant human activated Factor VII (FVIIa) (human, UniProt P08709 61-212; P08709 213-466, Gla domain: ten glutamate residues may be gamma-carboxylated); experiment: cell-based or functional assay
T1 sequence 1: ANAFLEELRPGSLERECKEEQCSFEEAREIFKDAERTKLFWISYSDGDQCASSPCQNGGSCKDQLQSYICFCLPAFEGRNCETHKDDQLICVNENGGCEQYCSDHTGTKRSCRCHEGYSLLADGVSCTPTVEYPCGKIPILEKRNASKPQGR
T1 sequence 2: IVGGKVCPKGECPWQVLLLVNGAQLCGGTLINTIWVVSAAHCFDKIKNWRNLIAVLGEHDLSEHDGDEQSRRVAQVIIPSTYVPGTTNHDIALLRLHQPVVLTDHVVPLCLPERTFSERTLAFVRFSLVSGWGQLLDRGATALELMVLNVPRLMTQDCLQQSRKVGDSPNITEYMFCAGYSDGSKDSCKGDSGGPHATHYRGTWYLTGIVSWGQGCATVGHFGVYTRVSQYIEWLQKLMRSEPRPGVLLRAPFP

[2] = target: T1, recombinant human activated Factor VII …; experiment: SPR (Biacore T200), captured antibody, FVIIa injected at 5-135 nM, 1:1 model
Protocol: Anti-murine IgG (by GE Healthcare) was immobilised on a CM4 sensor chip using standard amine coupling chemistry kit (both supplied by GE Healthcare). […] The running buffer was prepared by diluting 10-fold the 10×HBS-P buffer (supplied by GE Healthcare) and supplemented with 1 mg/ml BSA and 5 mM CaCl₂) to give 10 mM HEPES, 150 mM NaCl, 0.05% v/v Polysorbate 20(P20), pH 7.4, 5 mM CaCl₂), 1 mg/ml bovine serum albumin (BSA). […] Regeneration of the chip was achieved using regeneration buffer consisting of 10 mM Gly-HCl pH 1.7 (supplied by GE Healthcare). Binding data were analysed according to a 1:1 model using BiaEvaluation 4.1 supplied by the manufacturer (Biacore AB, Uppsala, Sweden).

[3] = target: T2, sTLT1 (SEQ ID No: 3 with six histidine residues added at the C-terminus) (human, UniProt Q86YW5 16-162); experiment: KD (TLT-1) listed for the biAbs of Example 30 (SPR value of Table 21)
T2 construct: Soluble TLT-1 used in SPR
T2 sequence: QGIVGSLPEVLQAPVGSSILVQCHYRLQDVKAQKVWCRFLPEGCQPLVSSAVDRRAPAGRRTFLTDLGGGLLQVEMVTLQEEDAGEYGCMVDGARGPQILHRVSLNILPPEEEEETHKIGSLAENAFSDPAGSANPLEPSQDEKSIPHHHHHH
Protocol: (§1) Binding of sTLT1 (corresponding to SEQ ID No: 3 with six histidine residues added at the C-terminus) to biAb from (Example 4) was probed by surface plasmon resonance (Biacore T200) at 25° C. Anti-human IgG was immobilised on a CM5 sensor chip (both supplied by GE Healthcare) using standard amine coupling chemistry. Purified biAbs according to Table 21 (1 nM) were injected at a flow rate of 10 μl/min for 1 min. Subsequently, sTLT1, between 0 and 60 μM, were injected at a flow rate of […] for 3 min to allow for binding to the biAb followed by a 3 min buffer injection allowing for dissociation from the biAb. The running buffer was prepared by diluting 10-fold the 10×HBS-P buffer (supplied by GE Healthcare) and supplemented with 1 mg/ml BSA and 5 mM CaCl₂) to give 10 mM HEPES, 150 mM NaCl, 0.05% v/v Polysorbate 20, pH 7.4, 5 mM CaCl₂), 1 mg/ml bovine serum albumin (BSA). The running buffer was also used for dilution of biAb and sTLT1 samples. Regeneration of the chip was achieved using recommended regeneration buffer consisted of 3M MgCl2 (supplied by GE Healthcare). Binding data were analysed according to a 1:1 model using BiaEvaluation 4.1 supplied by the manufacturer (Biacore AB, Uppsala, Sweden).

[4] = target: T3, recombinant human activated FVII (FVIIa) (human, UniProt P08709 61-212; P08709 213-466, ten glutamate residues of the Gla domain may be gamma-carboxylated); experiment: cell-based or functional assay
T3 sequence 1: T1 sequence 1
T3 sequence 2: T1 sequence 2

[5] = target: T2, sTLT1 (SEQ ID No: 3 with six histidine …); experiment: SPR, Biacore T200, 25 C; biAb captured on anti-human IgG, sTLT1 injected; 1:1 model
Protocol: as §1

[6] = target: T3, recombinant human activated FVII (FVIIa); experiment: dissociation constant listed with the stimulatory activities (SPR)
[7] = target: T2, sTLT1 (SEQ ID No: 3 with six histidine …); experiment: as above
[8] = target: T3, recombinant human activated FVII (FVIIa); experiment: dissociation constant listed with the stimulatory activities; value of the anti-FVII(a) arm mAb0873
[9] = target: T2, sTLT1 (SEQ ID No: 3 with six histidine …); experiment: dissociation constant listed with the stimulatory activities; value of the anti-TLT-1 arm
[10] = target: T3, recombinant human activated FVII (FVIIa); experiment: cell-based or functional assay; remark: listed apart in the source

B2: biAb0095 (bispecific antibody, human IgG4 S228P, kappa)
heavy 1: QVQLQESGPGLVKPSQTLSLTCTVSGYSISSDSAWSWIRQPPGKGLEWIGYIQYSGSTNYNPSLKSRVTISRDTSKNQFSLKLSSVTAADTAVYYCARSVNYYGNSFAVGYWGQGTLVTVSSASTKGPSVFPLAPCSRSTSESTAALGCLVKDYFPEPVTVSWNSGALTSGVHTFPAVLQSSGLYSLSSVVTVPSSSLGTKTYTCNVDHKPSNTKVDKRVESKYGPPCPPCPAPEFLGGPSVFLFPPKPKDTLMISRTPEVTCVVVDVSQEDPEVQFNWYVDGVEVHNAKTKPREEQFNSTYRVVSVLTVLHQDWLNGKEYKCKVSNKGLPSSIEKTISKAKGQPREPQVYTLPPSQEEMTKNQVSLTCLVKGFYPSDIAVEWESNGQPENNYKTTPPVLDSDGSFLLYSKLTVDKSRWQEGNVFSCSVMHEALHNHYTQKSLSLSLGK
light 1: EIVLTQSPATLSLSPGERATLSCRASQGISDYLHWYQQKPGEAPRLLIKYTSQPATGIPARFSGSGSGTDFTLTISSLEPEDFAVYYCQNGHSFPLTFGQGTKLEIKRTVAAPSVFIFPPSDEQLKSGTASVVCLLNNFYPREAKVQWKVDNALQSGNSQESVTEQDSKDSTYSLSSTLTLSKADYEKHKVYACEVTHQGLSSPVTKSFNRGEC
heavy 2: not shown
light 2: DIVMTQTPLSSPVTLGQPASISCRSSQSLVHRNGNTYFHWLQQRPGQPPRLLIYKVSNRFSGVPDRFSGSGAGTDFTLKISRVEAEDVGVYYCSQSTHVPYTFGQGTKLEIKRTVAAPSVFIFPPSDEQLKSGTASVVCLLNNFYPREAKVQWKVDNALQSGNSQESVTEQDSKDSTYSLSSTLTLSKADYEKHKVYACEVTHQGLSSPVTKSFNRGEC
notes: Duobody, constant domain type H (IgG4): anti-FVII(a) arm mAb0865, anti-TLT-1 arm mAb1047; also called mAb0865 x mAb1047
- Kd [3]: 75 nM
- Stimulation (fold): FXa generated by FVIIa with lipidated TLT-1 and 100 nM biAb, relative to free FVIIa [4]: 13.9 fold
- Kd [5]: 75 nM
- Kd [6]: 0.06 nM
- Kd [7]: 75 nM

B3: biAb0099 (bispecific antibody, human IgG4 S228P, kappa)
heavy 1: B2 heavy 1 with Q1D, A108W, G110D, Y111P
light 1: DIVMTQSPATLSVTAGDRVSLSCRASQGISDYLHWYQQKSHESPRLLIKYTSQPVSGIPSRFSGSGSGSEFTLSINSVEPEDVGVYYCQNGHSFPLTFGAGTKLELKRTVAAPSVFIFPPSDEQLKSGTASVVCLLNNFYPREAKVQWKVDNALQSGNSQESVTEQDSKDSTYSLSSTLTLSKADYEKHKVYACEVTHQGLSSPVTKSFNRGEC
heavy 2: not shown
light 2: B2 light 2
notes: Duobody, constant domain type H (IgG4): anti-FVII(a) arm mAb0873, anti-TLT-1 arm mAb1047; also called mAb0873 x mAb1047
- Kd [8]: 600 nM
- Kd [9]: 75 nM
- Stimulation (fold): FXa generated by FVIIa with lipidated TLT-1 and 100 nM biAb, relative to free FVIIa [4]: 5.8 fold

B4: biAb0015 (bispecific antibody, human IgG4 S228P, kappa)
heavy 1: B2 heavy 1
light 1: B2 light 1
heavy 2: not shown
light 2: B2 light 2 with N33P
notes: Duobody, constant domain type H (IgG4): anti-FVII(a) arm mAb0865, anti-TLT-1 arm mAb1038; also called mAb0865 x mAb1038
- Kd [3]: 19 nM
- Stimulation (fold): FXa generated by FVIIa with lipidated TLT-1 and 100 nM biAb, relative to free FVIIa [4]: 18.7 fold
- Kd [5]: 19 nM
- Kd [6]: 0.06 nM
- Kd [7]: 19 nM

B6: biAb0001 (bispecific antibody, human IgG4 S228P, kappa)
heavy 1: B2 heavy 1
light 1: B2 light 1
heavy 2: not shown
light 2: B2 light 2 with N33Q
notes: Duobody, constant domain type H (IgG4): anti-FVII(a) arm mAb0865, anti-TLT-1 arm mAb1076; also called anti-FVII(a)/anti-TLT-1 bispecific antibody; mAb0865 x mAb1076
- Kd [3]: 2.9 nM
- Stimulation (fold): FXa generated by FVIIa with lipidated TLT-1 and 100 nM biAb, relative to free FVIIa [4]: 29.2 fold
- Stimulation (fold): FXa generated by FVIIa with lipidated TLT-1 and 100 nM biAb, relative to free FVIIa [10]: 29.2 fold
- Kd [5]: 2.9 nM
- Kd [6]: 0.06 nM
- Kd [7]: 2.9 nM

B9: biAb0014 (bispecific antibody, human IgG4 S228P, kappa)
heavy 1: B2 heavy 1 with Q1D, A108W, G110D, Y111P
light 1: B3 light 1
heavy 2: not shown
light 2: B2 light 2 with N33Q
notes: also called mAb0873 x mAb1076
- Kd [8]: 600 nM
- Kd [9]: 2.9 nM
- Stimulation (fold): FXa generated by FVIIa with lipidated TLT-1 and 100 nM biAb, relative to free FVIIa [4]: 8 fold

The remaining lines, values ahead:

- AT inhibition (kinh %) [1]: 109%
- Kd [2]: 0.029 nM
B1: mAb0048 (antibody, human IgG4 S228P, kappa, V domains shown)
VH: DVQLQESGPGLVEPSQSLSLTCTVTGYSITSDCAWSWIRQFPGNKLEWMGYINYSGSTNYNPSLKSRISVTRDTSKNQFFLRLSSVTAEDTATYYCTRSVNYYGNSFAVGYWGQGTSVTVSS
VL: DIVMTQSPATLSVTAGDRVSLSCRASQGISDYLHWYQQKSHESPRLLIKYTSQPVSGIPSRFSGSGSGSEFTLSINSVEPEDVGVYYCQNGHSFPLTFGAGTKLELKR
notes: murine variable domains, human IgG4 S228P constant domain (type A), human kappa; also called 11F2 murine/human chimera

- Kd [8]: 600 nM
- Kd [9]: 19 nM
- Stimulation (fold): FXa generated by FVIIa with lipidated TLT-1 and 100 nM biAb, relative to free FVIIa [4]: 9.4 fold
B5: biAb0019 (bispecific antibody, human IgG4 S228P, kappa)
heavy 1: B2 heavy 1 with Q1D, A108W, G110D, Y111P
light 1: B3 light 1
heavy 2: not shown
light 2: B2 light 2 with N33P
notes: also called mAb0873 x mAb1038

- Kd [3]: 320 nM
- Stimulation (fold): FXa generated by FVIIa with lipidated TLT-1 and 100 nM biAb, relative to free FVIIa [4]: 11.1 fold
- Kd [5]: 320 nM
- Kd [6]: 0.06 nM
- Kd [7]: 320 nM
B7: biAb0090 (bispecific antibody, human IgG4 S228P, kappa)
heavy 1: B2 heavy 1
light 1: B2 light 1
heavy 2: not shown
light 2: B2 light 2
notes: Duobody, constant domain type H (IgG4): anti-FVII(a) arm mAb0865, anti-TLT-1 arm mAb1049; also called mAb0865 x mAb1049

- Kd [8]: 600 nM
- Kd [9]: 320 nM
- Stimulation (fold): FXa generated by FVIIa with lipidated TLT-1 and 100 nM biAb, relative to free FVIIa [4]: 5.4 fold
B8: biAb0094 (bispecific antibody, human IgG4 S228P, kappa)
heavy 1: B2 heavy 1 with Q1D, A108W, G110D, Y111P
light 1: B3 light 1
heavy 2: not shown
light 2: B2 light 2
notes: Duobody, constant domain type H (IgG4): anti-FVII(a) arm mAb0873, anti-TLT-1 arm mAb1049; also called mAb0873 x mAb1049
